{"source": "paper PMC3115958", "about": "(2011)", "binders": {"B1": {"name": "alkaline phosphatase tagged progranulin C100 (granulin E and its flanking region, aa 494-593) (domain or fragment)", "chain": "SCEKEVVSAQPATFLARSPHVGVKDVECGEGHFCHDNQTCCRDNRQGWACCPYRQGVCCADRRHCCPAGFRCAARGTKCLRREAPRWDAPLRDPALRQLL"}}, "target": "wild type sortilin expressed in COS-7 cells (UniProt Q99523 78-831)", "sequence (Q99523 78-831)": "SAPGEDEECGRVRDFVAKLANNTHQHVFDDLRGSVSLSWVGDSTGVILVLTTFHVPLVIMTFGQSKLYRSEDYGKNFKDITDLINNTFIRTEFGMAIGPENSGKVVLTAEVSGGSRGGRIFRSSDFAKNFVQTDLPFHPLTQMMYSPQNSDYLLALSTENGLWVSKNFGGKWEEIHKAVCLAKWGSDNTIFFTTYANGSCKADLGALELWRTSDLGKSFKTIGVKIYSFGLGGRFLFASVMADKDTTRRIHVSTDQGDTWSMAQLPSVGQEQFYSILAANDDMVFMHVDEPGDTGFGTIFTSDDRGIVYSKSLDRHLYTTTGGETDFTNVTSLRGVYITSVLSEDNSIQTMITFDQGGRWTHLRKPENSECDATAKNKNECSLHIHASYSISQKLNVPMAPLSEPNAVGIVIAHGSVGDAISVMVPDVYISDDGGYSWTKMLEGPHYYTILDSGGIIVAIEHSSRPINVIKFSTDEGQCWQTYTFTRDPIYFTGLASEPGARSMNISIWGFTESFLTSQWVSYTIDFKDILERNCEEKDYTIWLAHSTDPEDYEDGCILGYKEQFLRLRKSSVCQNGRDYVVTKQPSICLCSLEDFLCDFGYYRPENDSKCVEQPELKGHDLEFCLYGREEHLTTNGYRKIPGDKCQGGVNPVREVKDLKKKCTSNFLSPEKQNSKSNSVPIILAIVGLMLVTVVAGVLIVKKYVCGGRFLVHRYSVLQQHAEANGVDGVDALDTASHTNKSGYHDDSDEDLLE"}
{"binder": "B1", "values": [{"measurement": "Kd", "value": 3, "unit": "nM"}]}
